From patent US20170269080A1 (VIRGINIA COMMONWEALTH UNIVERSITY, published 2017) come the findings set out here.

Data set [1] deals with the molecule itself. The data set is described as follows: non-reducing SDS-PAGE and Western blot with anti-Asp14. On the technique in general: In western blotting, separated proteins are transferred to a membrane and probed.
Data set [2] concerns the target T1, PSGL-1 (sLe^x-capped, sialylated) on PSGL-1 CHO cells (UniProt Q14242 42-412, sLe^x-capped (alpha2,3-sialylated, alpha1,3-fucosylated glycan)).
T1 construct: whole, on cells; also called sLe^x-modified PSGL-1; sialylated PSGL-1
T1 sequence: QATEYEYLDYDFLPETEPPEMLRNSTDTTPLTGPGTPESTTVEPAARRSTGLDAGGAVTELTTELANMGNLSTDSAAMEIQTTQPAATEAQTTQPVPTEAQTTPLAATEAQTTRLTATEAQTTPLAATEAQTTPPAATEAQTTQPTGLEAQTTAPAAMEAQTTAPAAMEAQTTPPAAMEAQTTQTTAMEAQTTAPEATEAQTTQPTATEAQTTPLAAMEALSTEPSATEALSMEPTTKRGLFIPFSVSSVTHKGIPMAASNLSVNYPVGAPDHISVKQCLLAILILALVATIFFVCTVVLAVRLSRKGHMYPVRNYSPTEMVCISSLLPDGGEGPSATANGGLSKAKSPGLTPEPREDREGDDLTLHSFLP
The data set is described as follows: PSGL-1 CHO cells preincubated with GST-OmpA, Aph adherence counted (competition with the bacteria).

B1: GST-Asp14 (N-terminal glutathione-S-transferase-tagged A. phagocytophilum Asp14) (other)
chain: MIPLAPWKSISVVYMSGSDEYKEIIKQCIGSVKEVFGEGRFDDVVASIMKMQEKVLASSMQQDDTGTVGQIESGEGSGARLSDEQVQQLMNSIREEFKDDLRAIKRRILKLERAVYGANTPKES
notes: Coding region of asp14 (13.8 kDa) fused to GST; also called recombinant Asp14; not shown: glutathione-S-transferase (GST) tag, N-terminal, from vector pDest-15
Consider B1, for which the binding result in data set [1] is listed as “binds”.

B2: GST-OmpA (N-terminal glutathione-S-transferase-tagged A. phagocytophilum OmpA without signal sequence) (other)
chain: CGTLLPDSNVGVGRHDLGSHRSVAFAKKVEKVYFDIGKYDLKGPGKKVILELVEQLRQDDSMYLVVIGHADATGTEEYSLALGEKRANAVKQFIIGCDKSLAPRVTTQSRGKAEPEVLVYSTDAQEVEKANAQNRRAVIVVEFAHIPRSGVADMHAPVASSITSENSNASAEGEDMEASEFSSAIAN
notes: also called GST-tagged Aph OmpA; GST-ApOmpA; not shown: glutathione-S-transferase (GST) tag, N-terminal, from vector pDest-15
For B2, the “reduction of Aph binding to sLe^x-modified PSGL-1 relative to GST alone” value in data set [2] is approximately 60%.
